Biological target: CXCL9_HUMAN (human) (UniProt Q07325)
Experiment: yeast surface display FACS re-test

CXCL9_HUMAN (human), sequence (Q07325 23-125 limits assumed): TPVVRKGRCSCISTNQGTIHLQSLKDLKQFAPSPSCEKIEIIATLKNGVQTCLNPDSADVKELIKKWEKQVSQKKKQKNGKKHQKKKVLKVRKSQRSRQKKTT

B1: P1126_AMBCA (protein)
chain: KPQILQRTDKSTDSEWDPQTCPETCIPSKNITCSDGCVCVKLGEEEEGTCFNMTGVDWLGSPSDD
For B1, the % cells over threshold fluorescence was 56%.

Reference: patent publication US20240034757A1
